Where two headings read alike, the source gives them in different places.
Columns and labels:
[1] = molecular target: human TNFR1-Fc fusion protein (human) (UniProt P19438); assay: ELISA, human TNFR1-Fc
[2] = molecular target: human TNFR1-Fc fusion protein (human) (UniProt P19438); assay: ELISA, immobilized human TNFR1-Fc
[3] = molecular target: TNFR1 on the surface of cells (HT1080, HeLa, Kym-1) (human) (UniProt P19438); assay: cell-based or functional assay
[4] = molecular target: TNFR1 on the surface of cells (HT1080, HeLa, Kym-1) (human) (UniProt P19438); assay: cell-based or functional assay; remark: listed apart in the source

Sequence of TNFR1 on the surface of cells (HT1080, HeLa, Kym-1) (human) (P19438 30-455): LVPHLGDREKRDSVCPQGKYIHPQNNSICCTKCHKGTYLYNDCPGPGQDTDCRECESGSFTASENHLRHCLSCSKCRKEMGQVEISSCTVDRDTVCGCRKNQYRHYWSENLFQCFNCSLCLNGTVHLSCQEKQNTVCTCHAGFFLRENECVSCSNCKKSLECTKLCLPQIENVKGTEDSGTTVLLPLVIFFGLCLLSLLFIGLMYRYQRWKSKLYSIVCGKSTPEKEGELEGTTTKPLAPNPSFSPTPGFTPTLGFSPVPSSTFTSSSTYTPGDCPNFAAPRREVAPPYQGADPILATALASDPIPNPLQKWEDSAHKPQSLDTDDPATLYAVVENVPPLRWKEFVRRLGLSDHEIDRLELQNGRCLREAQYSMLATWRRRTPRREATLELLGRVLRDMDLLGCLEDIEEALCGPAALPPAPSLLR
Sequence of human TNFR1-Fc fusion protein (human) (P19438 30-211): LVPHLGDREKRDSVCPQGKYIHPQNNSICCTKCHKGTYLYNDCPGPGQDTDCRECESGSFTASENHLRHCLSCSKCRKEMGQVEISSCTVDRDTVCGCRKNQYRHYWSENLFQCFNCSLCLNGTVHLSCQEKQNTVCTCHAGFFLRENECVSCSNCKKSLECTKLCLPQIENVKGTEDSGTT

EC50 [1]: 0.09 nM
EC50 [2]: 0.4 nM
IL-8 Inhibition IC50 [3]: 136 nM
IC50, IL-6 [nM] (HeLa cells, 0.1 nM TNF) [4]: 165 nM
IC50, IL-8 [nM] (HT1080 cells, 0.1 nM TNF) [4]: 84.1 nM
IL-8 Inhibition IC50 [4]: 97.8 nM
Substance: ATROSAB (antibody)
IC50, Cell death induction [nM] (Kym-1 cells, 0.01 nM TNF) [4]: 64.4 nM

Source: patent US20200172619A1
